Laboratory results as given in IntAct's records for PubMed 10946006.

B1: Microsomal triglyceride transfer protein large subunit (Homo sapiens), P55157 (parent)
chain: MILLAVLFLCFISSYSASVKGHTTGLSLNNDRLYKLTYSTEVLLDRGKGKLQDSVGYRISSNVDVALLWRNPDGDDDQLIQITMKDVNVENVNQQRGEKSIFKGKSPSKIMGKENLEALQRPTLLHLIHGKVKEFYSYQNEAVAIENIKRGLASLFQTQLSSGTTNEVDISGNCKVTYQAHQDKVIKIKALDSCKIARSGFTTPNQVLGVSSKATSVTTYKIEDSFVIAVLAEETHNFGLNFLQTIKGKIVSKQKLELKTTEAGPRLMSGKQAAAIIKAVDSKYTAIPIVGQVFQSHCKGCPSLSELWRSTRKYLQPDNLSKAEAVRNFLAFIQHLRTAKKEEILQILKMENKEVLPQLVDAVTSAQTSDSLEAILDFLDFKSDSSIILQERFLYACGFASHPNEELLRALISKFKGSIGSSDIRETVMIITGTLVRKLCQNEGCKLKAVVEAKKLILGGLEKAEKKEDTRMYLLALKNALLPEGIPSLLKYAEAGEGPISHLATTALQRYDLPFITDEVKKTLNRIYHQNRKVHEKTVRTAAAAIILNNNPSYMDVKNILLSIGELPQEMNKYMLAIVQDILRFEMPASKIVRRVLKEMVAHNYDRFSRSGSSSAYTGYIERSPRSASTYSLDILYSGSGILRRSNLNIFQYIGKAGLHGSQVVIEAQGLEALIAATPDEGEENLDSYAGMSAILFDVQLRPVTFFNGYSDLMSKMLSASGDPISVVKGLILLIDHSQELQLQSGLKANIEVQGGLAIDISGAMEFSLWYRESKTRVKNRVTVVITTDITVDSSFVKAGLETSTETEAGLEFISTVQFSQYPFLVCMQMDKDEAPFRQFEKKYERLSTGRGYVSQKRKESVLAGCEFPLHQENSEMCKVVFAPQPDSTSSGWF
partner: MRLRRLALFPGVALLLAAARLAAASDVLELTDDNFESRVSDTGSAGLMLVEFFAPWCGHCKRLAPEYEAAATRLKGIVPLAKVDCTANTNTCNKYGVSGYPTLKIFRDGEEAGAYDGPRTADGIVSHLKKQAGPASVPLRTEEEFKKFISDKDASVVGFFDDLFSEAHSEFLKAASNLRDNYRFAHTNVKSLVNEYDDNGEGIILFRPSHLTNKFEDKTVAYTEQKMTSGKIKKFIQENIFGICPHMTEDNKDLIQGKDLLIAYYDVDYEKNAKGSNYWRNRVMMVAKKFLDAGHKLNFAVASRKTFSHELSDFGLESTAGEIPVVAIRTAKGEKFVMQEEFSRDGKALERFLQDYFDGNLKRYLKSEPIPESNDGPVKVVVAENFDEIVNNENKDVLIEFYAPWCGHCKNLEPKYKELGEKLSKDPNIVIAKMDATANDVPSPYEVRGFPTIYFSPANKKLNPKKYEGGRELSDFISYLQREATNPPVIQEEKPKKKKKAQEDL

Variants of: B1
Conditions: with pdia3_chlae PDIA3, Q4VIT4

Row | Variant | effect of a mutation on the interaction
1 | N780Y | with no effect
